Test [1] addresses T1, cynomolgus monkey ST2 antigen (Cyno-ST2-his, Sino biological, 90915-C08H) (cynomolgus monkey, UniProt Q01638 19-328 (human entry)).
T1 construct: Bought protein; not shown: his tag
T1 chain: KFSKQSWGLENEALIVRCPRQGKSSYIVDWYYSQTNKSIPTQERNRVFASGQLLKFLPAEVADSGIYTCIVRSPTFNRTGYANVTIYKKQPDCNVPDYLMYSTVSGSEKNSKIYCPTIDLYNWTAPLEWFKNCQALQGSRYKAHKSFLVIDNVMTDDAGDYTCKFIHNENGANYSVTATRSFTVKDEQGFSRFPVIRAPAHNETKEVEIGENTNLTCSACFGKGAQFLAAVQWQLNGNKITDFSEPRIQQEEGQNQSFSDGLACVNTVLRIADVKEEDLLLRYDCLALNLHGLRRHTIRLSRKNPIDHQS
The test can be described thus: ELISA, plate coated with Cyno-ST2-his. The method, then: ST2 binding screening and analysis of antibodies were performed by ELISA using hST2-ECD-mFc (for assays of chimeric and humanized antibodies), hST2-ECD-hFc protein (for assays of hybridoma antibodies) and Cyno-ST2-his (Sino biological, 90915-C08H) as antigens. A high-adsorption 96-well plate (Costar, 9018) was coated with 2 µg/mL hST2-ECD-mFc or Cyno-ST2-his antigen at 100 µL/well and incubated overnight at 4° C. After the antigen not adsorbed was well washed off, the non-specific binding sites were blocked with a blocking buffer (PBS containing 2% bovine serum albumin). After the plate was washed three times with a washing buffer (PBS containing 0.05% (v/v) Tween 20), the anti-ST2 antibodies (serially diluted 3-fold from an initial concentration of 10 nM to 8 concentrations: 3.333 nM, 1.111 nM, 0.370 nM, 0.123 nM, 0.041 nM, 0.014 nM, 0.005 nM, and 0.002 nM) were added at 100 µL/well, and the plate was incubated at room temperature for 1 h. After the plate was washed with the washing buffer, a horseradish peroxidase (HRP)-conjugated secondary antibody was added, and the plate was incubated for another 60 min. After the plate was washed with the washing buffer, the substrate TMB solution (Thermo, 00-4201-56) was added at 100 µL/well, and the plate was incubated at room temperature for 2 min. A stop solution (2 N H₂SO₄) was added at 100 µL/well to terminate the reactions. Colorimetric signals were generated and read at 450 nm using a microplate reader (PE, Envision). The data were analyzed using GraphPad Prism5, and the EC₅₀ values were calculated.
On the technique in general: ELISA stands for enzyme-linked immunosorbent assay.

Test [2] has as its target T1, cynomolgus monkey ST2 antigen …. The test can be described thus: SPR (Biacore T200), Cyno-ST2-his captured by anti-his antibody on CM5, antibody as analyte, 1:1 model. The protocol: The reaction signals were detected in real time using a Biacore instrument (Cytiva, BiacoreT200), and then an association-dissociation curve was obtained. After the completion of dissociation in each cycle, the biochip was regenerated with a regeneration solution for the next capture; the procedure was repeated until the affinity of the different antibodies for ST2 was determined. The acquired data were finally analyzed using the GE BIAevaluation software with a 1:1 (Langmuir) binding model to determine the association rate constants ka (kon) and the dissociation rate constants kd (koff), and the dissociation constants KD were given by KD = kd/ka. The determined affinity of the anti-ST2 antibody for human ST2 antigen (hST2-ECD-mFc), cynomolgus monkey ST2 antigen (Cyno-ST2-his, Sino biological, 90915-C08H) and the determined affinity of the anti-ST2 chimeric antibodies for ST2 were shown in Table 5.
Background: Surface plasmon resonance follows binding to a sensor surface in real time, without labels.

Test [3] deals with T2, cynomolgus monkey ST2 on HEK293T-Cyno-ST2-NFκB-Luciferase cells (cynomolgus monkey, UniProt Q01638 19-556 (human entry)).
T2 chain: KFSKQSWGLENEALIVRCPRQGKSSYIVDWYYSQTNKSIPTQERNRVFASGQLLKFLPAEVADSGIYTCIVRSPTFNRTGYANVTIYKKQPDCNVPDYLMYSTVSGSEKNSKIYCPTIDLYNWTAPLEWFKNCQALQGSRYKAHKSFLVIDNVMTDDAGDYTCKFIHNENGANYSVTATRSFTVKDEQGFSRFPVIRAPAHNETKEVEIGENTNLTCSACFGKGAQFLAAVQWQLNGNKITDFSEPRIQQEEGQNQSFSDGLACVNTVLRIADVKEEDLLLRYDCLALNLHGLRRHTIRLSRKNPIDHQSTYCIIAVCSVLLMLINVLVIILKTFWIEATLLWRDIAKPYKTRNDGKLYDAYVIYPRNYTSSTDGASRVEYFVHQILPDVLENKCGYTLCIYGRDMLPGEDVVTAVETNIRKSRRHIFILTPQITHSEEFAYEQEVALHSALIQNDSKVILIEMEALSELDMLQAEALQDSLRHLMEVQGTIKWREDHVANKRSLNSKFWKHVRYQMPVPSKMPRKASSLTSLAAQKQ
The test can be described thus: flow cytometry on HEK293T-Cyno-ST2-NFκB-Luciferase cells. The protocol:
The binding capacity of the anti-ST2 antibodies to hST2-overexpressing cell lines and cyno-ST2-overexpressing cell lines was analyzed using an FACS-based method through binding assays with the hST2 (SEQ ID NO:1)-overexpressing HEK293T cell line (HEK293T-hST2-NFκB-Luciferase) and the cynomolgus monkey ST2 (SEQ ID NO: 10)-overexpressing HEK293T cell line (HEK293T-Cyno-ST2-NFKB-Luciferase). HEK293 cells were transfected with the pLenti6.3- hST2 plasmid and the pLenti6.3-NFκB-luciferasae plasmid using a lentiviral transfection system to construct the cell line HEK293T-hST2-NFκB-Luciferase. HEK293T cells were transfected with the pLenti6.3-cynoST2 plasmid and the pLenti6.3-NFκB-luciferasae plasmid to construct the cell line HEK293T-Cyno-ST2-NFκB-Luciferase.
3 × 10⁵ HEK293T-hST2-NFκB-Luciferase or HEK293T-Cyno-ST2-NFκB-Luciferase cells were added to a 96-well culture plate. Serially diluted anti-ST2 antibodies (serially diluted 4-fold from an initial concentration of 667 nM to 8 concentrations in binding assays with the HEK293T-hST2-NFκB-Luciferase cells; serially diluted 4-fold from an initial concentration of 400 nM to 8 concentrations in binding assays with the HEK293T-Cyno-ST2-NFκB-Luciferase cells) were added to the cell suspensions. After the plate was incubated at room temperature for 60 min, the cells were washed 3 times with PBS. […] The cells were washed 3 times with PBS and resuspended in 100 µ1L of PBS, and then the fluorescence signals were analyzed and detected using a flow cytometer (BD, Accuri C6). The binding capacity of the anti-ST2 antibodies to hST2 and cyno-ST2 on the cell line surfaces was measured in terms of the mean fluorescence intensity (MFI) of staining. The data were analyzed using GraphPad Prism5, and the EC₅₀ values were calculated. The EC₅₀ values for the binding of the anti-ST2 chimeric antibodies to hST2 and Cyno-ST2 at the cellular level are shown in Table 8 and FIGS. 7-8.
Background: Flow cytometry measures light scatter and fluorescence of single cells or particles in a stream.

B1: RG6149 (antibody Ab2 in CN104334582, prepared in-house) (antibody, human IgG2, kappa, V domains shown)
VH: EVQLVQSGAEVKKPGESLKISCKGSGYSFTNYWIGWVRQMPGKGLEWMGIIYPGNSDTRFSPSFQGQVTISADKSITTAYLQWSSLKASDTAMYYCARHGTSSDYYGLDVWGQGTTVTVSS
VL: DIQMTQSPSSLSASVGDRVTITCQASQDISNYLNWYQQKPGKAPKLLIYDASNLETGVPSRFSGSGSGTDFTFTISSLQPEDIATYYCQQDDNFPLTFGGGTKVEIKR
notes: Control anti-ST2 antibody
A word on the EC50: it is the midpoint of the concentration-response curve. One may read the Kd as the equilibrium constant for the complex coming apart. In the case of B1, the results for the half-maximal effective concentration (EC50) in test [1] and in test [3] were 0.129 nM and 0.647 nM, respectively. In test [2], the Kd came to 0.049 nM.

B2: Chimeric 31C8 (antibody, human IgG2, kappa, V domains shown)
VH: QVQLQQSGPELVRPGASVTLSCKASGYIFIDSEMHWVKQTPVHGLEWIGAIDPETGDTVYNQKFKGKATLTADKSSSTASMELSSLTSEDSAVYYCTGSTTDYYFAYWGQGTTLTVSS
VL: DIVMTQAAFSNPVTLGTSASISCRSSKSLLHSNGIIYLYWYLQKPGQSPQLLIYQMSNLASGVPDRFSSSGSGTDFTLRISRVEAEDVGVYYCAQNLELPFTFGSGTKLEIKR
notes: also called xi31C8
Regarding B2, the results for the EC50 in test [1] and in test [3] were 0.163 nM and 0.83 nM, respectively. The same molecule had a Kd in test [2] of 0.323 nM.

B3: Chimeric 3C6 (antibody, human IgG2, kappa, V domains shown)
VH: QVQLQQSGAEVVRPGASVTLSCKASDYTITDYEMHWVKQTPVHGLEWIGAIDPETGDTAYSQNFKGKATLTADESSSTAYMELSSLTSEDSAVYYCSRSATDYYFASWGQGTTLTVSS
VL: DIVMTQAAISNPVTLGTSASMSCRSSKSLLHSNGITYLYWYLQKPGHSPQLLIYQMSNLASGVPDRFSSSGSGTDFTLKISRVEAEDVGVYYCAQNLELPFTFGSGTKLEIKR
notes: also called xi3C6
As for B3, the concentration giving a half-maximal response (EC50) worked out at 0.43 nM in test [1] and 105 nM in test [3]. The molecule further gave a Kd in test [2] of 152 nM.

B4: Chimeric 8F4 (antibody, human IgG2, kappa, V domains shown)
VH: QVQLQQSGAELVRPGASVTLSCKASGHIFTDYEMQWVKQTPVHGLEWIGAFDPETGDTAYNQKFKGKATLTADKSSSTAYMELSSLTSEDSAVYYCSGSTTDYYFAYWGQGTSLTVSS
VL: DVVMTQTAFSNPVTLGTSASISCRSSKSLLHSNGIIYLYWYLQKPGQSPQLLIYQMSNLASGVPDRFSSSGSGTDFTLRISRVEAEDVGVYYCAQNLELPFTFGSGTKLEIKR
notes: also called xi8F4
As to B4, the EC50 in test [1] was determined as 0.164 nM; in test [3] it was 0.458 nM. The molecule also displayed an equilibrium dissociation constant (Kd) in test [2] of 4.04 nM.

B5: Chimeric 26A1 (antibody, human IgG2, kappa, V domains shown)
VH: QVQLQQSGAELVRPGASVTLSCKASDYIFTDSEIHWVKQTLVHGLEWIGAIDPETGDTAYNQKFKGKATLTADKSSSTAYMELSSLTSEGSAVYYCSGSTTDCYFAYWGQGTTLTVSS
VL: DIVMTQAAFSNPVTLGTSASISCRSSKSLLHSNGIIYLYWYLQKPGQSPQLLIYQMSNLASGVPDRFSSSGSGTDFTLRISRVEAEDVGVYYCAQNLELPFTFGSGTKLEIKR
notes: also called xi26A1
In the case of B5, the EC50 turned out to be 0.946 nM in test [1] and 415 nM in test [3]. In test [2], binding was characterised by a dissociation constant (Kd) of 69.8 nM.

B6: Chimeric 7D1 (antibody, human IgG2, kappa, V domains shown)
VH: QVQLQQSGAELVRPGASVTLSCKASGYTFTDYEMHWVKQTPVHGLDWIGTIDPETGDTAYNQKFKGRATLTADKSSSTAYMELSSLTSEDSAVYYCTRYSYTNSPYGMDYWGQGTSVTVSS
VL: DVVMTQTPKFLLVSAGDRVTITCKASQSVSNDVAWYQQKPGQSPKLLIYYASNRYTGVPDRFTGSGYGTDFTFTINTVQAEDLAVYFCQQDYSSPYTFGGGTKLEIKR
notes: also called xi7D1
As to B6, the 50% effective concentration (EC50) in test [1] was 0.191 nM; in test [3] it was 0.394 nM. Binding in test [2] was put at a Kd of 0.124 nM.

B7: Chimeric 17E2 (antibody, human IgG2, kappa, V domains shown)
VH: QVQLQQSGAELVRPGASVTLSCKASGYTFTDYEMHWVKQTPVLGLEWIGAIDPETGDTAYNQKFKGKATLTADKSSSTAYMELSSLASEDSAVYYCIRVDSNYDYFDYWGQDTTLTVSS
VL: DIVLTQSPPILSASPGEKVTMTCRASSSVSYMHWYQQKPGSSPKPWIYDTSNLASGVPARFSGSGSGTSYSLTISRVEAEDAATYYCQQWSSNPLTFGAGTKLELKR
notes: also called xi17E2
For the molecule B7, the concentration giving a half-maximal response (EC50) in test [1] is 0.22 nM; in test [3] it was 0.487 nM. Besides, the dissociation constant Kd in test [2] was 0.0257 nM.

The record behind these values is US20230272086A1 (CHIA TAI TIANQING PHARMACEUTICAL GROUP, published 2023).
